From article PMC5386471

Target: Flag-ACRP-hCD40L

amount of transfected CD40-GPI plasmid sufficient to inhibit 50% of CD40-induced NF-κB response (luciferase reporter, 293T cells; CD40L here from 1 ng of co-transfected plasmid): 1.4 ng
Substance: GPI-anchored CD40 ectodomain (from UniProt P25942 21-193)
